Legend:
[1] = target: human CD33 P48H (human, UniProt P20138 18-364); test: flow cytometry, transfected cells
[2] = target: human CD33 P48F (human, UniProt P20138 18-364); test: flow cytometry, transfected cells
[3] = target: human CD33 P48Y (human, UniProt P20138 18-364); test: flow cytometry, transfected cells
[4] = target: human CD33 P48N (human, UniProt P20138 18-364); test: flow cytometry, transfected cells
[5] = target: human CD33 P48Q (human, UniProt P20138 18-364); test: flow cytometry, transfected cells
[6] = target: human CD33 P48D (human, UniProt P20138 18-364); test: flow cytometry, transfected cells
[7] = target: human CD33 P48G (human, UniProt P20138 18-364); test: flow cytometry, transfected cells
[8] = target: human CD33 Y49C (human, UniProt P20138 18-364); test: flow cytometry, transfected cells
[9] = target: human CD33 Y50S (human, UniProt P20138 18-364); test: flow cytometry, transfected cells
Chain of human CD33 Y50S (P20138 18-364 Y50S limits assumed): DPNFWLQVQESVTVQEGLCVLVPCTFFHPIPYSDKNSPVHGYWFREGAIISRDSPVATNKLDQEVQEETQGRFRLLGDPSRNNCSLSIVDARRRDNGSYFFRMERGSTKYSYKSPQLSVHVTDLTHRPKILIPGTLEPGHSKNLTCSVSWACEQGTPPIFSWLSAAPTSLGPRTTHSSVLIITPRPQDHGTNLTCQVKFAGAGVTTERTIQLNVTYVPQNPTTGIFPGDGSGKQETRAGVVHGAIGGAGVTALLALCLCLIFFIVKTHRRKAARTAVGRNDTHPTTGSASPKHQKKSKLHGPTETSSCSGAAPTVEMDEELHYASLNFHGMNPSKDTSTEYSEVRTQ

[10] = target: human CD33 Y50V (human, UniProt P20138 18-364); test: flow cytometry, transfected cells
[11] = target: human CD33 Y50I (human, UniProt P20138 18-364); test: flow cytometry, transfected cells
[12] = target: human CD33 Y50N (human, UniProt P20138 18-364); test: flow cytometry, transfected cells
[13] = target: human CD33 Y50Q (human, UniProt P20138 18-364); test: flow cytometry, transfected cells
Chain of human CD33 Y50Q (P20138 18-364 Y50Q limits assumed): as the sequence (P20138 18-364 Y50S limits assumed) above, with S33Q counted along it

[14] = target: human CD33 Y50H (human, UniProt P20138 18-364); test: flow cytometry, transfected cells
Chain of human CD33 Y50H (P20138 18-364 Y50H limits assumed): as the sequence (P20138 18-364 Y50S limits assumed) above, with S33H counted along it

[15] = target: human CD33 Y50D (human, UniProt P20138 18-364); test: flow cytometry, transfected cells
Chain of human CD33 Y50D (P20138 18-364 Y50D limits assumed): as the sequence (P20138 18-364 Y50S limits assumed) above, with S33D counted along it

[16] = target: human CD33 Y50G (human, UniProt P20138 18-364); test: flow cytometry, transfected cells
[17] = target: human CD33 Y50L (human, UniProt P20138 18-364); test: flow cytometry, transfected cells
[18] = target: human CD33 I47P (human, UniProt P20138 18-364); test: flow cytometry, transfected cells
[19] = target: human CD33 D51N (human, UniProt P20138 18-364); test: flow cytometry, transfected cells, IgG;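 further: CD33 point mutants transiently expressed in HEK293-T cells, antibody binding read by fluorescence, background subtracted and normalized to wild-type CD33 as 100%, duplicates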
Chain of human CD33 D51N (P20138 18-364 D51N limits assumed): as the sequence (P20138 18-364 Y50S limits assumed) above, with S33Y, D34N counted along it

[20] = target: human CD33 K52E (human, UniProt P20138 18-364); test: flow cytometry, transfected cells, IgG;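 further: CD33 point mutants transiently expressed in HEK293-T cells, antibody binding read by fluorescence, background subtracted and normalized to wild-type CD33 as 100%, duplicates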
[21] = target: human CD33 Y127H (human, UniProt P20138 18-364); test: flow cytometry, transfected cells, IgG;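 further: CD33 point mutants transiently expressed in HEK293-T cells, antibody binding read by fluorescence, background subtracted and normalized to wild-type CD33 as 100%, duplicates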
Chain of human CD33 Y127H (P20138 18-364 Y127H limits assumed): as the sequence (P20138 18-364 Y50S limits assumed) above, with S33Y, Y110H counted along it

[22] = target: human CD33 Y127R (human, UniProt P20138 18-364); test: flow cytometry, transfected cells, IgG;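 further: CD33 point mutants transiently expressed in HEK293-T cells, antibody binding read by fluorescence, background subtracted and normalized to wild-type CD33 as 100%, duplicates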
Chain of human CD33 Y127R (P20138 18-364 Y127R limits assumed): as the sequence (P20138 18-364 Y50S limits assumed) above, with S33Y, Y110R counted along it

[23] = target: human CD33 L134I (human, UniProt P20138 18-364); test: flow cytometry, transfected cells, IgG
[24] = target: human CD33 P46F (human, UniProt P20138 18-364); test: flow cytometry, transfected cells
Chain of human CD33 P46F (P20138 18-364 P46F limits assumed): as the sequence (P20138 18-364 Y50S limits assumed) above, with P29F, S33Y counted along it

[25] = target: human CD33 P46R (human, UniProt P20138 18-364); test: flow cytometry, transfected cells
Chain of human CD33 P46R (P20138 18-364 P46R limits assumed): as the sequence (P20138 18-364 Y50S limits assumed) above, with P29R, S33Y counted along it

[26] = target: human CD33 P46Y (human, UniProt P20138 18-364); test: flow cytometry, transfected cells
Chain of human CD33 P46Y (P20138 18-364 P46Y limits assumed): as the sequence (P20138 18-364 Y50S limits assumed) above, with P29Y, S33Y counted along it

[27] = target: human CD33 P46H (human, UniProt P20138 18-364); test: flow cytometry, transfected cells
Chain of human CD33 P46H (P20138 18-364 P46H limits assumed): as the sequence (P20138 18-364 Y50S limits assumed) above, with P29H, S33Y counted along it

[28] = target: human CD33 P46D (human, UniProt P20138 18-364); test: flow cytometry, transfected cells
[29] = target: human CD33 P19K (human, UniProt P20138 18-364); test: flow cytometry, transfected cells
[30] = target: human CD33 N20G (human, UniProt P20138 18-364); test: flow cytometry, transfected cells
[31] = target: human CD33 N20T (human, UniProt P20138 18-364); test: flow cytometry, transfected cells
[32] = target: human CD33 N20P (human, UniProt P20138 18-364); test: flow cytometry, transfected cells
[33] = target: human CD33 N20Y (human, UniProt P20138 18-364); test: flow cytometry, transfected cells
Chain of human CD33 N20Y (P20138 18-364 N20Y limits assumed): as the sequence (P20138 18-364 Y50S limits assumed) above, with N3Y, S33Y counted along it

[34] = target: human CD33 N20E (human, UniProt P20138 18-364); test: flow cytometry, transfected cells
[35] = target: human CD33 F21S (human, UniProt P20138 18-364); test: flow cytometry, transfected cells
[36] = target: human CD33 F21V (human, UniProt P20138 18-364); test: flow cytometry, transfected cells
[37] = target: human CD33 F21L (human, UniProt P20138 18-364); test: flow cytometry, transfected cells
[38] = target: human CD33 F21I (human, UniProt P20138 18-364); test: flow cytometry, transfected cells
[39] = target: human CD33 W22S (human, UniProt P20138 18-364); test: flow cytometry, transfected cells
[40] = target: human CD33 W22L (human, UniProt P20138 18-364); test: flow cytometry, transfected cells
[41] = target: human CD33 W22N (human, UniProt P20138 18-364); test: flow cytometry, transfected cells

Chain of human CD33 P48H (P20138 18-364 P48H limits assumed): as the sequence (P20138 18-364 Y50S limits assumed) above, with P31H, S33Y counted along it
Chain of human CD33 P48N (P20138 18-364 P48N limits assumed): as the sequence (P20138 18-364 Y50S limits assumed) above, with P31N, S33Y counted along it

B1: Refmab #4 (antibody, human IgG1, V domains shown)
VH: QVQLVQSGAEVKKPGESVKVSCKASGYTFTNYGMNWVKQAPGQGLEWMGWINTYTGEPTYADKFQGRVTMTTDTSTSTAYMEIRNLGGDDTAVYYCARWSWSDGYYVYFDYWGQGTSVTVSS
VL: DIVMTQSPDSLTVSLGERTTINCKSSQSVLDSSTNKNSLAWYQQKPGQPPKLLLSWASTRESGIPDRFSGSGSGTDFTLTIDSPQPEDSATYYCQQSAHFPITFGQGTRLEIK
Question: Does B1 bind [1]?
Answer: Result: no binding (tested: below 20%)

Question: Does B1 bind [2]?
Answer: Result: no binding (tested: below 20%)

Question: Does B1 bind [3]?
Answer: Result: no binding (tested: below 20%)

Question: Does B1 bind [4]?
Answer: Result: no binding (tested: below 20%)

Question: Does B1 bind [5]?
Answer: Result: no binding (tested: below 20%)

Question: Does B1 bind [6]?
Answer: Result: no binding (tested: below 20%)

Question: Does B1 bind [7]?
Answer: Result: no binding (tested: below 20%)

Question: Does B1 bind [8]?
Answer: Result: no binding (tested: below 20%)

Question: Does B1 bind [9]?
Answer: Result: no binding (tested: below 20%)

Question: Does B1 bind [10]?
Answer: Result: no binding (tested: below 20%)

Question: Does B1 bind [11]?
Answer: Result: no binding (tested: below 20%)

Question: Does B1 bind [12]?
Answer: Result: no binding (tested: below 20%)

Question: Does B1 bind [13]?
Answer: Result: no binding (tested: below 20%)

Question: Does B1 bind [14]?
Answer: Result: no binding (tested: below 20%)

Question: Does B1 bind [15]?
Answer: Result: no binding (tested: below 20%)

Question: Does B1 bind [16]?
Answer: Result: no binding (tested: below 20%)

Question: Does B1 bind [17]?
Answer: Result: no binding (tested: below 20%)

B2: Refmab #5 (antibody, human IgG1, V domains shown)
VH: QVQLVQSGAEVKKPGASVKVSCKASGYTFTNYDINWVRQAPGQGLEWIGWIYPGDGSTKYNEKFKAKATLTADTSTSTAYMELRSLRSDDTAVYYCASGYEDAMDYWGQGTTVTVSS
VL: DIQMTQSPSSLSASVGDRVTINCKASQDINSYLSWFQQKPGKAPKTLIYRANRLVDGVPSRFSGSGSGQDYTLTISSLQPEDFATYYCLQYDEFPLTFGGGTKVEIK
Question: Does B2 bind [18]?
Answer: Result: no binding (tested: below 20%)

Question: Does B2 bind [1]?
Answer: Result: no binding (tested: below 20%)

Question: Does B2 bind [2]?
Answer: Result: no binding (tested: below 20%)

Question: Does B2 bind [3]?
Answer: Result: no binding (tested: below 20%)

Question: Does B2 bind [4]?
Answer: Result: no binding (tested: below 20%)

Question: Does B2 bind [5]?
Answer: Result: no binding (tested: below 20%)

Question: Does B2 bind [6]?
Answer: Result: no binding (tested: below 20%)

Question: Does B2 bind [7]?
Answer: Result: no binding (tested: below 20%)

Question: Does B2 bind [8]?
Answer: Result: no binding (tested: below 20%)

Question: Does B2 bind [9]?
Answer: Result: no binding (tested: below 20%)

Question: Does B2 bind [10]?
Answer: Result: no binding (tested: below 20%)

Question: Does B2 bind [11]?
Answer: Result: no binding (tested: below 20%)

Question: Does B2 bind [12]?
Answer: Result: no binding (tested: below 20%)

Question: Does B2 bind [13]?
Answer: Result: no binding (tested: below 20%)

Question: Does B2 bind [14]?
Answer: Result: no binding (tested: below 20%)

Question: Does B2 bind [15]?
Answer: Result: no binding (tested: below 20%)

Question: Does B2 bind [16]?
Answer: Result: no binding (tested: below 20%)

Question: Does B2 bind [17]?
Answer: Result: no binding (tested: below 20%)

Question: And the “Mean % WT Binding” value [19]?
Answer: Its value is 89.4%.

Question: What about the “Mean % WT Binding” value [20] of the same binder?
Answer: Its value is 13.8%.

Question: What about the “Mean % WT Binding” value [21] of the same binder?
Answer: The value was 97.2%.

Question: And the “Mean % WT Binding” value [22]?
Answer: Its value is 108%.

Question: And the “Mean % WT Binding” value [23]?
Answer: Its value is 92.9%.

B3: Refmab #3 (antibody, human IgG1, V domains shown)
VH: QVQLVQSGAEVKKPGSSVKVSCKASGYTFTDYNMHWVRQAPGQGLEWIGYIYPYNGGTGYNQKFKSKATITADESTNTAYMELSSLRSEDTAVYYCARGRPAMDYWGQGTLVTVSS
VL: DIQMTQSPSSLSASVGDRVTITCRASESVDNYGISFMNWFQQKPGKAPKLLIYAASNQGSGVPSRFSGSGSGTDFTLTISSLQPDDFATYYCQQSKEVPWTFGQGTKVEIK
Question: Does B3 bind [24]?
Answer: Result: no binding (tested: below 20%)

Question: Does B3 bind [25]?
Answer: Result: no binding (tested: below 20%)

Question: Does B3 bind [26]?
Answer: Result: no binding (tested: below 20%)

Question: Does B3 bind [27]?
Answer: Result: no binding (tested: below 20%)

Question: Does B3 bind [28]?
Answer: Result: no binding (tested: below 20%)

Question: Does B3 bind [18]?
Answer: Result: no binding (tested: below 20%)

Question: Does B3 bind [29]?
Answer: Result: no binding (tested: below 20%)

Question: Does B3 bind [30]?
Answer: Result: no binding (tested: below 20%)

Question: Does B3 bind [31]?
Answer: Result: no binding (tested: below 20%)

Question: Does B3 bind [32]?
Answer: Result: no binding (tested: below 20%)

Question: Does B3 bind [33]?
Answer: Result: no binding (tested: below 20%)

Question: Does B3 bind [34]?
Answer: Result: no binding (tested: below 20%)

Question: Does B3 bind [35]?
Answer: Result: no binding (tested: below 20%)

Question: Does B3 bind [36]?
Answer: Result: no binding (tested: below 20%)

Question: Does B3 bind [37]?
Answer: Result: no binding (tested: below 20%)

Question: Does B3 bind [38]?
Answer: Result: no binding (tested: below 20%)

Question: Does B3 bind [39]?
Answer: Result: no binding (tested: below 20%)

Question: Does B3 bind [40]?
Answer: Result: no binding (tested: below 20%)

Question: Does B3 bind [41]?
Answer: Result: no binding (tested: below 20%)

B4: Refmab #6 (antibody, human IgG1, V domains shown)
VH: QVQLQQPGAEVVKPGASVKMSCKASGYTFTSYYIHWIKQTPGQGLEWVGVIYPGNDDISYNQKFQGKATLTADKSSTTAYMQLSSLTSEDSAVYYCAREVRLRYFDVWGQGTTVTVSS
VL: EIVLTQSPGSLAVSPGERVTMSCKSSQSVFFSSSQKNYLAWYQQIPGQSPRLLIYWASTRESGVPDRFTGSGSGTDFTLTISSVQPEDLAIYYCHQYLSSRTFGQGTKLEIK
Question: What does the source list for B4?
Answer: binding result [39]: no binding (tested: below 20%); binding result [40]: no binding (tested: below 20%); binding result [41]: no binding (tested: below 20%); Mean % WT Binding [19]: 92.6%; Mean % WT Binding [20]: 121%; Mean % WT Binding [21]: 112%; Mean % WT Binding [22]: 108%; Mean % WT Binding [23]: 89.4%

B5: Refmab #1 (antibody, human IgG1, V domains shown)
VH: EVQLVQSGAEVKKPGSSVKVSCKASGYTITDSNIHWVRQAPGQSLEWIGYIYPYNGGTDYNQKFKNRATLTVDNPTNTAYMELSSLRSEDTAFYYCVNGNPWLAYWGQGTLVTVSS
VL: DIQLTQSPSTLSASVGDRVTITCRASESLDNYGIRFLTWFQQKPGKAPKLLMYAASNQGSGVPSRFSGSGSGTEFTLTISSLQPDDFATYYCQQTKEVPWSFGQGTKVEVK
notes: also called hP67.6; Absolute Antibody Cat. No. Ab00283-10.0
Question: Does B5 bind [24]?
Answer: Result: no binding (tested: below 20%)

Question: Does B5 bind [25]?
Answer: Result: no binding (tested: below 20%)

Question: Does B5 bind [26]?
Answer: Result: no binding (tested: below 20%)

Question: Does B5 bind [27]?
Answer: Result: no binding (tested: below 20%)

Question: Does B5 bind [28]?
Answer: Result: no binding (tested: below 20%)

Question: Does B5 bind [29]?
Answer: Result: no binding (tested: below 20%)

Question: Does B5 bind [30]?
Answer: Result: no binding (tested: below 20%)

Question: Does B5 bind [31]?
Answer: Result: no binding (tested: below 20%)

Question: Does B5 bind [32]?
Answer: Result: no binding (tested: below 20%)

Question: Does B5 bind [33]?
Answer: Result: no binding (tested: below 20%)

Question: Does B5 bind [34]?
Answer: Result: no binding (tested: below 20%)

Question: Does B5 bind [35]?
Answer: Result: no binding (tested: below 20%)

Question: Does B5 bind [36]?
Answer: Result: no binding (tested: below 20%)

Question: Does B5 bind [37]?
Answer: Result: no binding (tested: below 20%)

Question: Does B5 bind [38]?
Answer: Result: no binding (tested: below 20%)

From patent publication US20260242735A1 (UNIVERSIT T BASEL, published 2026)
